Values of other authors as cited in PMC7419686.

Target: MDMX (Homo sapiens) (UniProt O15151)
Sequence (O15151 whole entry): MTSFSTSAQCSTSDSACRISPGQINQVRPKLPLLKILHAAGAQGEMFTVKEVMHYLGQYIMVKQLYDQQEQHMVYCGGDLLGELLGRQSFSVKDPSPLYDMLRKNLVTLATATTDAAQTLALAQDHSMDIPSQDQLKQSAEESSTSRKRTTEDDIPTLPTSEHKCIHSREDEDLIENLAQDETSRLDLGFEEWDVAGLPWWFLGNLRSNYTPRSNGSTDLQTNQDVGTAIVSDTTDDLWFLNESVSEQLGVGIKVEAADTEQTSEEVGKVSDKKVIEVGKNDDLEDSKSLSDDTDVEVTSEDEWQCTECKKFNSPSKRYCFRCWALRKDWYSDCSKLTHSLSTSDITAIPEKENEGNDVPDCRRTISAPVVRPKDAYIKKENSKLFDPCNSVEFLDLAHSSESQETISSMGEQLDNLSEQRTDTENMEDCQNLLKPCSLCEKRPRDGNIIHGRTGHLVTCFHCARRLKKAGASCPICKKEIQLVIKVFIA

**Q.** Which Kd does the source give for SAH-p53-8 (from UniProt P04637) here?
**A.** 2.3 nM
